1 protein from article PMC3272479 (Nature structural & molecular biology, 2012) can be followed below.

The data set concerns the molecule itself. Nature of the data set: crystal structure.

B1: KirBac3.1 S129R mutant channel (natural protein)
chain: MTGGMKPPARKPRILNSDGSSNITRLGLEKRGWLDDHYHDLLTVSWPVFITLITGLYLVTNALFALAYLACGDVIENARPGSFTDAFFFSVQTMATIGYGKLIPIGPLANTLVTLEALCGMLGLAVAARLIYARFTRPTAGVLFSSRMVISDFEGKPTLMMRLANLRIEQIIEADVHLVLVRSEISQEGMVFRRFHDLTLTRSRSPIFSLSWTVMHPIDHHSPIYGETDETLRNSHSEFLVLFTGHHEAFAQNVHARHAYSCDEIIWGGHFVDVFTTLPDGRRALDLGKFHEIAQ
Usually stoichiometry N stands for a count of units in the complex or per binding partner. For the protein B1, the “stoichiometry N” value worked out at 4.
